Assay [1] deals with complement C3b, site-specifically biotinylated at the thioester moiety (UniProt P01024). In words: SPR. On the technique in general: Surface plasmon resonance follows binding to a sensor surface in real time, without labels.
The target is the same in assay [2]. Nature of the assay: SPR. This is another data set of the same source.
Assay [3] addresses complement C3b (UniProt P01024). In words: ITC.

Consider two molecules from article PMC2881335.

Where “and” joins values, the source holds several entries; their conditions need not be identical. Identical values can stand only once.

As for “Bb fragment of factor B (from UniProt P00751 260-764) (domain or fragment)”, in assay [1], the decay half-life of the convertase is 5 to 6 min.

B1: staphylococcal complement inhibitor SCIN-A (natural protein)
chain: STSLPTSNEYQNEKLANELKSLLDELNVNELATGSLNTYYKRTIKISGQKAMYALKSKDFKKMSEAKYQLQKIYNEIDEALKSKY
A word on the Kd: it is the constant that tells how readily two partners part at equilibrium. As usually defined, the stoichiometry N is a count of units in the complex or per binding partner. Regarding B1, the Kd in assay [2] is 169 nM and 177 nM. In assay [3], the Kd came to 264 nM and the stoichiometry N was determined as 0.75.
